The results in this text go back to patent US20110151450.

What all share (assay): cleavage_in_vitro
Data set [1] deals with T1, NruI-HF P22A/R90A (Nocardia rubra).
T1 sequence: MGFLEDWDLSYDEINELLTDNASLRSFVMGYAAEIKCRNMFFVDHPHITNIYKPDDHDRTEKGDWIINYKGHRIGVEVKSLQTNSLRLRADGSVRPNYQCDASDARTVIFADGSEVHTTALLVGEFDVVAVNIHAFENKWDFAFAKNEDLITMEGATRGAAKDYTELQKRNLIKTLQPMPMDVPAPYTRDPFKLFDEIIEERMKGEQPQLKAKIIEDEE
The settings on record: NEB4, relative activity 100%.

Data set [2] concerns the target T2, BanII-WT (Bacillus aneurinolyticus) (UniProt P19887).
T2 sequence: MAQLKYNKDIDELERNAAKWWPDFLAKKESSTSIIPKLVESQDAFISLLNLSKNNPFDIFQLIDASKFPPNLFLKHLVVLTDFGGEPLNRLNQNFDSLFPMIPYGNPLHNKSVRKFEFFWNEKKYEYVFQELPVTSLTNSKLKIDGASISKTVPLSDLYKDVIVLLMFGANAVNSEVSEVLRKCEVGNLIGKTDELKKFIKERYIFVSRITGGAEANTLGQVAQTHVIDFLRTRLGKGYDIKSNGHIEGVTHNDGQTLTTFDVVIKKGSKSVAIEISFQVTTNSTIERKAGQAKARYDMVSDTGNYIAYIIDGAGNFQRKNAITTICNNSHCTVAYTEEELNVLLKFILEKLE
The note with it: NEB4, relative activity 100%.

For a further data set, the system named is T3, NruI-WT (Nocardia rubra).
T3 sequence: T1 sequence with A22P, A90R
The settings on record: NEB4, relative activity 12.5%.

In data set [3] the test system is T4, BclI-HF Y192F (Bacillus caldolyticus).
T4 sequence: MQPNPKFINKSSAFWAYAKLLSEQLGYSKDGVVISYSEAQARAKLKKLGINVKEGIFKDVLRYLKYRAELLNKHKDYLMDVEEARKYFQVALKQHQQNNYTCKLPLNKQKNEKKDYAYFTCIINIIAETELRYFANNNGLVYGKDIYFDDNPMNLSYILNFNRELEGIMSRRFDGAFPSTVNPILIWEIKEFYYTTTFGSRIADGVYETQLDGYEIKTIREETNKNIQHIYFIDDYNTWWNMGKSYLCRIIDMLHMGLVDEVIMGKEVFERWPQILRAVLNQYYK
The note with it: NEB4, relative activity 100%.

Data set [4] deals with BanII-HF R126A (Bacillus aneurinolyticus). The settings on record: NEB4, relative activity 50%.
For data set [5], the target named is T5, DpnII-HF R199A (Diplococcus pneumoniae) (UniProt P09357).
T5 sequence: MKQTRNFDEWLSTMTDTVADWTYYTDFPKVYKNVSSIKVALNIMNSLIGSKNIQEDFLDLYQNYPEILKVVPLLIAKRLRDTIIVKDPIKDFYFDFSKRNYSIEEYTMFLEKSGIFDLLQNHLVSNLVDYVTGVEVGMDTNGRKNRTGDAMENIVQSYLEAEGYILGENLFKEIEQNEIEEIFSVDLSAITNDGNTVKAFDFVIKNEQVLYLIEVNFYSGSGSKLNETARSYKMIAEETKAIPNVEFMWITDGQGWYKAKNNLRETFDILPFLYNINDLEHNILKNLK
The settings on record: NEB4, relative activity 100%.

In data set [6] the test system is T6, BclI-WT (Bacillus caldolyticus).
T6 sequence: T4 sequence with F192Y
The settings on record: NEB4, relative activity 100%.

Data set [7] deals with T7, DpnII-WT (Diplococcus pneumoniae) (UniProt P09357).
T7 sequence: T5 sequence with A199R
The note with it: NEB4, relative activity 25%.

The target of data set [8] is T8, BanI-HF Q292A (Bacillus aneurinolyticus) (UniProt P19887).
T8 sequence: T2 sequence with Q292A
The note with it: NEB4, relative activity 100%.

For data set [9], the system named is T9, BstEII-HF R105A (Bacillus stearothermophilus).
T9 sequence: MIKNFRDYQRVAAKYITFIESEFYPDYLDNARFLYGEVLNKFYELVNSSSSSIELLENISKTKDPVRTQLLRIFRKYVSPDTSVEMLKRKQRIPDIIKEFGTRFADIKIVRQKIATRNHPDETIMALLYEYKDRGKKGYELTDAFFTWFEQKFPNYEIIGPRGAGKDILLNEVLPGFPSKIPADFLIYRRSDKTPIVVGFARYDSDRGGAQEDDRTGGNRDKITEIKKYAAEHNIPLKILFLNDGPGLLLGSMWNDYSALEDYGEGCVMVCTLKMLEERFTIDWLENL
The settings on record: NEB4, relative activity 100%.

Data set [10] has as its target T10, BglI-WT (Bacillus globigii) (UniProt O68557).
T10 sequence: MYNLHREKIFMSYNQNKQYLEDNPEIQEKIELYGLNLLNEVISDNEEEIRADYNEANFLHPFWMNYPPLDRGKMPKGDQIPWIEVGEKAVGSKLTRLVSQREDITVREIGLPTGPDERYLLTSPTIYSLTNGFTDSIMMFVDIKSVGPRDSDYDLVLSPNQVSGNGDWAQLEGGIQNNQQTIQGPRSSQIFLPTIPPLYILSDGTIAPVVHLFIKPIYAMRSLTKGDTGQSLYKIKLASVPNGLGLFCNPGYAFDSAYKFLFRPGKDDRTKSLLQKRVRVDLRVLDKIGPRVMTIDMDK
The settings on record: NEB4, relative activity 50%.

In data set [11] the test system is T11, MluI-HF E112A/R132A (Micrococcus luteus).
T11 sequence: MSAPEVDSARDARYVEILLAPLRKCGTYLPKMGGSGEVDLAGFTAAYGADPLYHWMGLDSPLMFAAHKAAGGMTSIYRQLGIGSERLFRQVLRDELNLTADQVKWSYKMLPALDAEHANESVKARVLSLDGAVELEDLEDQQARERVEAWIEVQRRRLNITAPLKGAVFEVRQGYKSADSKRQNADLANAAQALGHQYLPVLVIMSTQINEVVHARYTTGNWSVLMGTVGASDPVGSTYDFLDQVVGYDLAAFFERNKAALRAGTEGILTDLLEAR
The note with it: NEB4, relative activity 100%.

Data set [12] relates to T12, BstEII-WT (Bacillus stearothermophilus).
T12 sequence: T9 sequence with A105R
The settings on record: NEB4, relative activity 100%.

Data set [13] concerns the target T13, BglI-HF K225A (Bacillus globigii) (UniProt O68557).
T13 sequence: T10 sequence with K225A
The settings on record: NEB4, relative activity 100%.

In data set [14] the test system is T14, MluI-WT (Micrococcus luteus).
T14 sequence: T11 sequence with A112E, A132R
The settings on record: NEB4, relative activity 25%.

Data set [15] addresses T15, BanI-WT (Bacillus aneurinolyticus) (UniProt P19887).
T15 sequence: T2 sequence
The note with it: NEB4, relative activity 100%.

Another data set relates to T16, NspI-WT (Nostoc species).
T16 sequence: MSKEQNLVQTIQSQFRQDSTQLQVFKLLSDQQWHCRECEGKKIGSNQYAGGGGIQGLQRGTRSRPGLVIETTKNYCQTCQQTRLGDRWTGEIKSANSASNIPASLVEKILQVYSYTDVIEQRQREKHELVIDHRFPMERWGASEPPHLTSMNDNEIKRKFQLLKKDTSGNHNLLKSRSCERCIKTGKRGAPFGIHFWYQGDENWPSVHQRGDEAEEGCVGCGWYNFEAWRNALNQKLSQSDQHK
The note with it: NEB4, BSA, relative activity 50%.

For data set [16], the system named is T17, NspI-HF S97A (Nostoc species).
T17 sequence: T16 sequence with S97A
The note with it: NEB4, BSA, relative activity 100%.

Residue numbers refer to the chain shown, from its start. Where only a bound is given, the exact number is not on record here.

In the case of dam- lambda DNA, the activity (fidelity index) in [1] is more than 16000; in [2], 16; in the data set on NruI-WT (Nocardia rubra), 32; in data set [3], more than 2000; in data set [4] it was more than 2000; in [5], 8000. In addition, the activity (fidelity index) came out at 32 in data set [6] and 1 in data set [7].
For lambda DNA, the activity (fidelity index) was more than 2000 in data set [8]; more than 2000 in data set [9]; 32 in data set [10]; more than 32000 in [11]; 4 in [12]; more than 8000 in data set [13]. Further, the figures for the activity (fidelity index) in data set [14] and in [15] were 32 and 16, respectively.
Take pUC19 plasmid: the activity (fidelity index) turned out to be 32 in the data set with NspI-WT (Nostoc species) and 500 in [16].
